Experimental data as given in article PMC9436816.

Tests used:
[1] = biological target: Flag-tagged PKM2^WT (pyruvate kinase M2) (human) (UniProt P14618); assay: cross-linking; whole cell lysates (4 mg/ml) cross-linked with 0.025% glutaraldehyde for 3 min at 37 °C, stopped with Tris-HCl pH 8.0, WB; cells with or without EGF (100 ng/ml, 1 h), with or without transfected OGT variants
[2] = glutaraldehyde crosslinking, WB; tetramer fraction after EGF; settings: glycan lost; control: Flag-PKM2 WT, EGF-treated
[3] = colorimetric PK activity of immunoprecipitated PKM2 after EGF; settings: glycan lost; control: Flag-PKM2 WT, EGF-treated
[4] = biological target: pyruvate kinase M2 (PKM2), endogenous (human (endogenous in A549)) (UniProt P14618); assay: cross-linking; whole cell lysates (4 mg/ml) cross-linked with 0.025% glutaraldehyde for 3 min at 37 °C, stopped with Tris-HCl pH 8.0, WB; cells with or without EGF (100 ng/ml, 1 h), with or without transfected OGT variants

Substance: Flag-tagged PKM2^WT (pyruvate kinase M2), P14618 1-531 (enzyme; other documents disagree on this pair)
- stoichiometry N [1]: 2

Substance: Pyruvate kinase M2 (PKM2): T405A/S406A
- oligomerisation [2]: increases
- enzymatic_activity [3]: increases

Substance: pyruvate kinase M2 (PKM2), endogenous, P14618 1-531 (enzyme; other documents disagree on this pair)
- stoichiometry N [4]: 2
